Laboratory results taken from paper PMC2847587 (Molecular cell, 2010).

B1: FAAP24 (natural protein, human (endogenous in HeLa), UniProt Q9BTP7 1-215, looked up)
chain: MEKNPPDDTGPVHVPLGHIVANEKWRGSQLAQEMQGKIKLIFEDGLTPDFYLSNRCCILYVTEADLVAGNGYRKRLVRVRNSNNLKGIVVVEKTRMSEQYFPALQKFTVLDLGMVLLPVASQMEASCLVIQLVQEQTKEPSKNPLLGKKRALLLSEPSLLRTVQQIPGVGKVKAPLLLQKFPSIQQLSNASIGELEQVVGQAVAQQIHAFFTQPR
B2: FANCA (natural protein, human (endogenous in HeLa), UniProt O15360 1-1455, looked up)
chain: MSDSWVPNSASGQDPGGRRRAWAELLAGRVKREKYNPERAQKLKESAVRLLRSHQDLNALLLEVEGPLCKKLSLSKVIDCDSSEAYANHSSSFIGSALQDQASRLGVPVGILSAGMVASSVGQICTAPAETSHPVLLTVEQRKKLSSLLEFAQYLLAHSMFSRLSFCQELWKIQSSLLLEAVWHLHVQGIVSLQELLESHPDMHAVGSWLFRNLCCLCEQMEASCQHADVARAMLSDFVQMFVLRGFQKNSDLRRTVEPEKMPQVTVDVLQRMLIFALDALAAGVQEESSTHKIVRCWFGVFSGHTLGSVISTDPLKRFFSHTLTQILTHSPVLKASDAVQMQREWSFARTHPLLTSLYRRLFVMLSAEELVGHLQEVLETQEVHWQRVLSFVSALVVCFPEAQQLLEDWVARLMAQAFESCQLDSMVTAFLVVRQAALEGPSAFLSYADWFKASFGSTRGYHGCSKKALVFLFTFLSELVPFESPRYLQVHILHPPLVPGKYRSLLTDYISLAKTRLADLKVSIENMGLYEDLSSAGDITEPHSQALQDVEKAIMVFEHTGNIPVTVMEASIFRRPYYVSHFLPALLTPRVLPKVPDSRVAFIESLKRADKIPPSLYSTYCQACSAAEEKPEDAALGVRAEPNSAEEPLGQLTAALGELRASMTDPSQRDVISAQVAVISERLRAVLGHNEDDSSVEISKIQLSINTPRLEPREHMAVDLLLTSFCQNLMAASSVAPPERQGPWAALFVRTMCGRVLPAVLTRLCQLLRHQGPSLSAPHVLGLAALAVHLGESRSALPEVDVGPPAPGAGLPVPALFDSLLTCRTRDSLFFCLKFCTAAISYSLCKFSSQSRDTLCSCLSPGLIKKFQFLMFRLFSEARQPLSEEDVASLSWRPLHLPSADWQRAALSLWTHRTFREVLKEEDVHLTYQDWLHLELEIQPEADALSDTERQDFHQWAIHEHFLPESSASGGCDGDLQAACTILVNALMDFHQSSRSYDHSENSDLVFGGRTGNEDIISRLQEMVADLELQQDLIVPLGHTPSQEHFLFEIFRRRLQALTSGWSVAASLQRQRELLMYKRILLRLPSSVLCGSSFQAEQPITARCEQFFHLVNSEMRNFCSHGGALTQDITAHFFRGLLNACLRSRDPSLMVDFILAKCQTKCPLILTSALVWWPSLEPVLLCRWRRHCQSPLPRELQKLQEGRQFASDFLSPEAASPAPNPDWLSAAALHFAIQQVREENIRKQLKKLDCEREELLVFLFFFSLMGLLSSHLTSNSTTDLPKAFHVCAAILECLEKRKISWLALFQLTESDLRLGRLLLRVAPDQHTRLLPFAFYSLLSYFHEDAAIREEAFLHVAVDMYLKLVQLFVAGDTSTVSPPAGRSLELKGQGNPVELITKARLFLLQLIPRCPKKSFSHVAELLADRGDCDPEVSAALQSRQQAAPDADLSQEPHLF

Assays:
Assay in all cases: immunodepletion
FANCA = target: B2
FAAP24 = target: B1
[1] = target: MHF1 (FANCM-associated Histone Fold protein 1) (human (endogenous in HeLa), UniProt Q8N2Z9-1 1-138)
[2] = target: MHF2 (FANCM-associated Histone Fold protein 2) (human (endogenous in HeLa), UniProt A8MT69 1-81)
Sequence of MHF2 (FANCM-associated Histone Fold protein 2) (A8MT69 whole entry): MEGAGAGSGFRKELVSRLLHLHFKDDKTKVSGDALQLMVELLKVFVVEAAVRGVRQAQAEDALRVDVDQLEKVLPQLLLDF

Sequence of MHF1 (FANCM-associated Histone Fold protein 1) (Q8N2Z9 whole entry): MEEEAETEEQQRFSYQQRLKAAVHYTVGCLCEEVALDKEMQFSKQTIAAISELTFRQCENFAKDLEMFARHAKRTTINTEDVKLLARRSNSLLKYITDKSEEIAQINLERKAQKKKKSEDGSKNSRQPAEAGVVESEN

percent co-depleted (FANCA) [%] | percent co-depleted (FAAP24) [%] | percent co-depleted [1] [%] | percent co-depleted [2] [%] | Binder
< 30 | – | – | – | B1
– | < 25 | < 25 | < 25 | B2
